For assay [1], the target named is T1, human claudin 3 (human, UniProt O15551 1-220).
T1 construct: cell lysate in the immunoprecipitation; also called CLDN3; hCLDN3
T1 sequence: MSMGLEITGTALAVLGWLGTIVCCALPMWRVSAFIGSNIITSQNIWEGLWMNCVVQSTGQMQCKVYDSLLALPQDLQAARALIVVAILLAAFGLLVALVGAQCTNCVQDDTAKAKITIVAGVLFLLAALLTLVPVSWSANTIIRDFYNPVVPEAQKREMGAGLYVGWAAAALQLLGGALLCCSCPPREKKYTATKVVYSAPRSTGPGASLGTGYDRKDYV
Briefly: LigandTracer Green, FITC-conjugated antibody on hCLDN3/HEK293 cells against HEK293, 1:1 two state model.

The target of assay [2] is T1, human claudin 3. In words: LigandTracer Green, FITC-conjugated antibody on hCLDN3/HEK293 cells against HEK293, 1:1 two state model (ka1).
The target in assay [3] is T1, human claudin 3. Briefly: LigandTracer Green, FITC-conjugated antibody on hCLDN3/HEK293 cells against HEK293, 1:1 two state model (kd1).
The target in assay [4] is T1, human claudin 3. In words: LigandTracer Green, FITC-conjugated antibody on hCLDN3/TOV-112D cells against TOV-112D, 1:1 two state model (ka1).
Assay [5] has as its target T1, human claudin 3. Briefly: LigandTracer Green, FITC-conjugated antibody on hCLDN3/TOV-112D cells against TOV-112D, 1:1 two state model (kd1).
The target in assay [6] is T1, human claudin 3. In words: LigandTracer Green, FITC-conjugated antibody on hCLDN3/TOV-112D cells against TOV-112D, 1:1 two state model.

B1: 4G3 IgG antibody (antibody, V domains shown)
VH: EVQLLESGGGLVQPGGSLRLSCAASGFTFSSYAMSWVRQAPGKGLEWVSIINPSGASTSHAQRFQGRFTISRDNSKNTLYLQMNSLRAEDTAVYYCARYGRYGSFDIWGQGTLVTVSS
VL: QSVLTQPPSASGTPGQRVTISCSGSTSNIGRNYVSWYQQLPGTAPKLLIYDTSNKHFGVPDRFSGSKSGTSASLAISGLRSEDEADYYCQSYDSSKVVFGGGTKLTVL
For the molecule B1, the figures for the Kd with human claudin 3 [1] and in the assay with human claudin 3 [6] were 4.03 nM and 2.35 nM, respectively. For the same molecule, the results for the kon with human claudin 3 [2] and with human claudin 3 [4] were 46600 M⁻¹ s⁻¹ and 47400 M⁻¹ s⁻¹, respectively. Further, the koff (usually a measure of how fast the partners let go of each other) amounted to 0.000671 s⁻¹ with human claudin 3 [3] and 0.000337 s⁻¹ with human claudin 3 [5].

(Values after patent US12098198 (ABION, dated 2024).)
